Assay results published in US20120149645A1, “COMPOSITIONS AND MODULATION OF MYOCYTE ENHANCER FACTOR 2 (MEF2)” (EMORY UNIVERSITY, priority 2010, published 2012).

Key:
TH+ neurons in SNpc = experiment: MPTP mouse model of PD, TH immunohistochemistry in SNpc; conditions: lentivirus injected into SNpc of mouse brain, then MPTP
Experimental: (B) Role of mitochondrial MEF2D-ND6 pathway in maintaining TH+ neurons in SNpc in a MPTP mouse model of PD. For each group, three mice received stereotactical injection of control vector (GFP) or Mt2Ddn lentivirus in SN. Two weeks later, mice were exposed to MPTP. After treatment for seven days, the survival of lentivirus-transduced TH+ neurons in SN was determined by immunohistochemistry (left panel). Quantitative analysis of nine mice from three independent experiments was shown at the bottom panel (scale bar, 30 μm; **P<0.01).

SN4741 cells [1] = experiment: Subcellular localization of over-expressed MEF2D constructs; assay type: cell-based, mouse; conditions: over-expressed in SN4741 cells
From the text: (A) Lack of mitochondrial localization by ΔN30MEF2D. […] VDAC, PARP and c-Raf are Mt, Nu and Cy markers, respectively. Control indicates the control vector group. (B) Immunocytochemistry analysis of mitochondrial localization of transfected Flag-MEF2D. […] Experiments were repeated four times. (C, D) Requirement of mtHsp70 for mitochondria-targeting of MEF2D (n=4; **p<0.01). Control indicates untreated. […]. Knocking down mouse mtHsp70 by siRNA reduced MEF2D level in purified mitochondria from SN4741 cells (C). […] MnSOD is a known mtHsp70-imported mitochondrial matrix protein.
(A) Diagrams of Mt2DVP16 and MtND6. Mt2DVP16 was constructed by fusion of transactivation domain (TAD) of VP16 with DNA-binding domain of MEF2D and a mitochondria-targeting sequence (Mito). […] (C) Over-expression of Mt2DVP16 attenuated MEF2D siRNA-induced reduction of ND6 expression (n=3, **P<0.01).
Control indicates the group co-tranfected with control vector.
SN4741 cells or primary midbrain DA neurons were plated on glass slides in 24-well plates. Localizations of endogenous and exogenous MEF2D were visualized on a Zeiss LSM5 PASCAL confocal microscope. […] Quantification of colocalization of signals was done using “Colocalization Analysis” program of software Image Pro (Media Cybernetics). […]

SN4741 cells [2] = experiment: Mitochondrial functional assays (ATP, H2O2, membrane potential); assay type: cell-based, mouse; conditions: over-expression in SN4741 cells
From the text: (A) Requirement of mitochondrial MEF2D for complex I activity. […] Control indicates the control vector group. (B) Over-expression of ND6 rescued complex I activity reduced by Mt2Ddn. Control indicates the control vector group. (C) Measurement of various complex activities. […] Control indicates the control vector group. (D) Effects of over-expression of Mt2D or Mt2Ddn on mitochondrial function. Mt2Ddn reduced cellular ATP level and elevated H2O2 production in SN4741 cells (n=4; *p<0.05; **P<0.01). Control indicates the control vector group.
Mitochondrial complex I activity was evaluated initially by blue native-polyacrylamide gel electrophoresis (BN-PAGE) and in-gel activity staining. This assay measures total complex I activity. Rotenone sensitive complex I activity and activities of other mitochondrial complexes were further measured by methods described by Antoni et al., J Biol Chem, 1998, 273:14210-14217. Briefly, parallel assays were performed to measure complex I activity at 340 nm using 2,3-dimethoxy-5-methyl-6-n-decyl-1,4-benzoquinone (DB) (50 μM) as acceptor and NADH (0.8 mM) as donor, in 50 mM Tris (pH 8.0) buffer supplemented with 5 mg/ml BSA either without or with the addition of 4 μM rotenone, which gave total and rotenone insensitive complex I activities, respectively. The difference in value between the two provided a quantified measure of the rotenone-sensitive activity. Mitochondrial membrane potential was detected using a kit (cat. no. 280002) from Stratagene following the procedures provided by the manufacturer. The fluorescent dye JC-1 (5,5′,6,6′-tetrachloro-1,1′,3,3′-tetraethylbenzimidazolyl carbocyanine iodide) stains mitochondria red in a membrane potential dependent manner. Briefly, cells were seeded in 96-well plates at 4×10^4 cells/well with 100 μl culture medium and incubated at 33° C. with 5% CO2. After treatment, 10 μl/well of premixed JC-1 staining solution was added, and the cells were incubated for an additional 30 min under the same conditions. After thorough washes, 100 μl assay buffer was added to each well. Fluorescence signal was detected with excitation and emission at 520 nm and 590 nm, respectively, on a multi-well plate reader (Bio-Tek). Cellular ATP and H202 were measured by Bioluminescent Somatic Cell ATP Assay Kit (Sigma) and Hydrogen Peroxide Assay Kit (Cayman), respectively.

B1: Mt2Ddn: Mitochondria-targeting dominant-negative MEF2D: mouse MEF2D 1-131aa with mitochondria-targeting signal, lacks the transactivation domain (protein, UniProt Q63943 1-131, looked up, fragment)
chain: MGRKKIQIQRITDERNRQVTFTKRKFGLMKKAYELSVLCDCEIALIIFNHSNKLFQYASTDMDKVLLKYTEYNEPHESRTNADIIETLRKKGFNGCDSPEPDGEDSLEQSPLLEDKYRRASEELDGLFRRY
modifications: mitochondria-targeting signal added
TH+ neurons in SNpc
  loss of TH signal in DA neurons in vivo: significantly accelerates
SN4741 cells [1]
  mitochondrial localization by immunocytochemical staining (MitoTracker): targeted exclusively to mitochondria
SN4741 cells [2]
  cellular ATP level: clear reduction
  hydrogen peroxide production by mitochondria: significantly increased
SN4741 cells [2]; JC-1
  mitochondrial membrane potential: did not significantly alter
